# Changes are numbered by the printed parent chain.
# B1: C9 (antibody, V domains shown)
# VH: QVQLRESGPSPVKPSQTLSLTCTVSGFSLSSYAVAWVRQAPGKALEWVAGISGGGSTSYNAALKSRLRITKDNSKSQVALSLSSVTSEDTATYYCVKCANDYGSYFCYNYDYGYDFYVDAWGQGLLVTVSS
# VL: QAVLTQPSSVSGSLGQRVSITCAGSSSNIGTYSVGWYQQVPGSGLTTIIYETTGRPKGVPDRFSGSKSGNTATLTITSLQAEDEADYFCVTYELGSGAVFGSGTTLTVL
# B2: B77 (antibody, V domains shown)
# VH: QVQLRESGPSLVKPSQTLSLTCTISGFSLSSYTIGWVRQAPGKALEWIGDMSNGGMPYYNPALKSRLSITKHNSKSQVRLSVSSVTPEDTATYYCAKSRYTGDGSIGLYGVDAWGQGLLITVSS
# VL: QAVLTQPSSVSGSLGQRVSITCSGTYSNVGTGNYVSWFQQIPGSAPRTLIYSVTNRASGVPDRFSGSRSGHTATLTISSLQAEDEADYFCLSWQSGNTALFGSGTTLTVL
# B3: B66 (antibody, V domains shown)
# VH: QVQLRESGPSLVKPSQTLSLTCTVSGFSLTTYSVNWVRQTPGKALECLGGITSGGNAYYQPSLKSRLSITKDNSKNQVSLSINSATPEDTATYYCGKLSGTGVCEGGCACGHDPHVDAWGQGVLVTVSS
# VL: QAVLTQPSSVSGSLGQRISITCSGSSNNVGLYNVGWYQQIPGSGLRTIIYAGDRRPSGVPDRFSGSEFGDTATLTISSLQAEDEADYFCVTYDSTISAAVFGSGTTLTVL
# B4: C4 (antibody, V domains shown)
# VH: QVQLRESGPSLVKPSQTLFLTCTVSGFSLTSYSVNWVRQTPGKMLECLGGIATSGSTGYNPVLKSRLRITKDNSKSQVSLSVSNVTPEDTATYYCAKWSSRGGYDCGVHSSDYSYLDAWGQGLLVTVSS
# VL: QAVLTQPSSVSASLGQRVSITCSGSSSNIGRYGATWYQQVPGSGLRTIIYGSSRRPSGVPDRFSGSKSGNTVTLTISSLQPEDEADYFCAAYDISTNAVFGSGTTLTLL
# B5: C5 (antibody, V domains shown)
# VH: QVQLRESGPSLVKPSQTLSLTCTVSGFSLSSYGVGWVRQAPGRALEFLADIYSDGSTTYNLALKSRLSIMKDNSKSEVSLSLSSVTTEDTATYYCAKSSRGVGWGDGLHYNENDAGAWGQGLLVTVSS
# VL: QAVLSQPPSVSGSLGQTVTIPCTGSSNNIGILGVSWYQQIPGSAPRTLVYNNNKRPSGVADRFSGTKSGNTGTLTIASLQAEDEADYYCASADPNFGGGTRVTVL
# B6: A35 (antibody, V domains shown)
# VH: QVQLRESGPSLVKPSQTLSLTCTVSGFSLSSNGVIWVRQAPGKALEWLGGICGGGSTSFNPSLKSRLTITKDNSKNQVSLSVRSVTPEDTATYYCARSCGSYRDAWYDCASDGYRYHNYVDAW
# VL: QAVLTQPSSVSGSLGQRVSITCSGSNNNIGSYAVGWYQQVPGSGLRTIIYGSTIRPSGVPDRFSGSKSRSTATLTISSLQAEDEADYFCATADYSSSTVVFGSGTTLTVL
# B7: A19 (antibody, V domains shown)
# VH: QVQLRESGPSLVKPSQTLSLTCTTSGFSLSSYAVGWVRQAPGKALEWVGGISSGGKTCPSPALKTRLSITKLNSRGQVSLSVGSVSTEDTATYYCVKFFSGGWTYSCYGIDFGSVDAWGQGVLVTVSS
# VL: QAVLTQPSSVSGSLGQRVSITCSGSSNNIGSYGVGWYQQVPGSGLRTIIYGSTSRPSGVPDRFSGSKSGNTATLTISSLQAEDEADYFCAAGDDSSSSVDVFGSGTTLTVL
# B8: B57 (antibody, V domains shown)
# VH: QVQLRESGPSLVKPSQTLSLTCTVSGFSLSGYAVTWVRRAPGQALECLGGISRGGLTNNNPALRSRVSITKDDSKSQVSLSVSTVTPEDTATYYCVRLGATKFGDYGCYGYGLYVDTWGQGLPVTVSS
# VL: QAVLTQPSSVSGSLGQRVSITCSGSSSNIGRHGVSWYQQVPGSGLRTIIYSGNSRPSGVPDRFSGSKSGNTATLTISSLLAEDEADYFCAADDIVSRTTFFGSVTTLTVL
# B9: F28 (antibody, V domains shown)
# VH: QVQLRESGPSLVKPSQTLSLTCTVSGFSLNTYSVYWVRQVPGKALECIGGISSREARGYNPALKPRLSITKDNSKSQVSLSLSSVTTDDTATYYCAKAARGYAFTCGGISSHSDHYVDAWGQGLLVTVSS
# VL: QAVLTQPSSVSGSLGQRVSISCSGSSSNVGTGNHVSWFQQIPGSAPRTLIYGATRRLSGVPDRFSGSRSGNTATLTISSLQAEDEADYFCASWQSDSTTVFGSGTTLTVL
# B10: B82 (antibody, V domains shown)
# VH: QVQLRESGPSLVKPSQTLSLTCTVSGFSLSNYAVGWVRQAPGKALEYLGGVRLRGRPDYNPALESRLSITKDNSKSQVSLSVSSVTLEDTATYYCAKSSSGLWDGGCCGGSTSCYVDSWGQGLLVTVSS
# VL: QAVLTQPSSVSGSLGQRVSITCSGSSSNIGTYTVGWYQQVPGSGLRTIIYSNNNRPSGVPDRFSGSKSGNTATLTISSLQAEDEADYFCVTYESSISTALFGRGTTLTVL
# B11: B73 (antibody, V domains shown)
# VH: QVQLRESGPSLVKPSQTLSLTCTVSGFSLSSYDVGWVRQAPGKALECLGSITNRGKTGYNPALKSRLSITKDNSKSQVSLSLNSVTTEDTATYYCAKLNSGGYGIDGNGCYAFGSNYNLYVDAWGQGLLITVSS
# VL: QAVLTQPSSVSGSLGQRVSITCSGSSSNLGTYNVGWYQQVPGSGLRTIIYGSSSRPSGVPDRFSGSRSGNTATLTISSLQAEDEADYFCTAYDHSISTAVSGSGTTLTVL
# B12: F169 (antibody, V domains shown)
# VH: QVQLRESGPSLVKPSQTLSLTCTVSGFSLSTYGVAWVRQAPGKALEWIGGISGRGSGSEYYNPPLQSRLSITKDTSRSQVFLSVRTVAPEDTATYYCVKCIDSWCNYDDSGDIDAWGQGLLVTVSS
# VL: QAVLTQPSSVSGSLGQRVSITCSGSTSNIGKCDVGWYQRVPESGLRTIIYGNSKRPSGVPDRFSGSKSGTVATLTISSLQAEDEAEYFCATGDYSLRTAVFGSGTTLIVL
# B13: F128 (antibody, V domains shown)
# VH: QVQLRESGPSLVKPSQTLSLTCTVSGFSLGTYTVTWVRQAPGKALEWVGEISGGGDTDYNPALKSRLSITKHNSKSQVSLSVSSVTPEDTATYYCARCYSTCGCGLSCTSEDSYYVNAWGQGLLVTVSS
# VL: QAVLTQPSSVSGSLGQRVSITCSGSSSNIGSYNVGWYQQVPGSGLTTIIYGTNNRPSGVPDRFSGSKSGNTATLTISSLRAEDEADYFCVTYDSTSSTIFGTGTTLTVL
# B14: B74 (antibody)
# VH: QVQLRESGPGLVKPSQTLSLTCTASGFSLSIKAVGWVRQAPGKALEWLGSIDTGGNTGYNPGLKSRLSITKDNSKSQVSLSLSSVTTEDSATYYCATVHQETKKSCSDGYYYRNECGAYGDCTVGNCCCSYASDYCNWCDFRRVTPTYTYEHHVEAWGQGLLVTVSS
# VL: QAVLTQPSSVSGSLGQRVSITCSGSSGNVGNGYVSWYQLIPGSAPRTLIYGDTTRVSGVPDRFSGSRSGNTATLTISSLQAEDEADYFCASAEDSSNNAVFGSGTTLTVL
# B15: B83 (antibody)
# VH: QVQLRESGPSLVKPSQTLSLTCTASGFSLSDKAVGWVRQAPGKALEWLGSIDTGGSTGYNPGLKSRLSITKDTSKTQVSLSVSSVTTEDSATYYCTNVHQKTTTERSCPDLGYKYECGNNCCWYSSCRGCIQGTYTSTYNFYVHAWGQGLRVTVSS
# VL: B14 VL with G27S, A44G, T54S, V56A, A92T, N97S, A99V
# B16: E34 (antibody, V domains shown)
# VH: QVQLRESGPSLVKPSQTLSLTCTVSGFSLNDYNVGWVRQAPGKALECLGGYKADGSTNYNSALKSRLSITKDSSKKQVSLSLSSVTTEDTATYYCAKCPSRWGCDYCDNYDFWGQGLLVTVSS
# VL: B14 VL with G27S, N28D, N31K, I40M, A44G, T54S, V56I, E93D, N97S
# B17: E54 (antibody)
# VH: QVHLRESGPSLVKPSQTLSLTCTASGFSLSDRAVGWVRQAPGKALEWLGSIDTGGTTGYNPGLKSRLRITKDNSKSQVSLSVSTVTTDDSATYYCGAVYQTTETKTTCPEGYSNTGDCDDDCCCWGSDCSRYARWKRYRGGWFSSDYIVTEVYEFHVDAWGQGLLVSVSS
# VL: B14 VL with G27S, A44T, T54S, R55P, V56A, S77I, L79F, N97S, A99V
# B18: E50 (antibody)
# VH: QVQLRESGPSLVKPSQTLSLTCTASGFSLSDKAVGWVRQAPGKALEWLGSVDTSGSTGYNPGLESRLIITKDNSKSRVSLSVHSVTSEDSATYYCVTVHQKSRDEKSCPDGYIDGAGCKYGWPCSDQDCCVCSSCVYGYSGMNCVPARYSESYEWNVEAWGQGLLVTVSS
# VL: B14 VL with G27T, V56A, F88S, N97S
# B19: F103 (antibody)
# VH: QVQLRESGPSLVKPSQTLSLTCTASGFSLSDKAVGWVRQAPGKALEWLGSIDTGGNSGYNPGLKSRLSITKDNSKSQASLSVSSVITGDSATYYCAIVHQETVRKTSGSDAYTCPDGCVLSPACSRERRCLCGTWPRDYCVDHIQSSTYNFYVEAWGQGLLVTVSS
# VL: B14 VL with G12E, S25I, G27S, N28S, T54S, V56A, E93D, D94G, N97S, V100I
# B20: E18 (antibody, V domains shown)
# VH: QVQLRESGPSLVTPSQTLSLTCAVSGGSLSTHDVVWVRQAPGRALEWVGGISSRGTTYYNPALKSRLSITQDLSKNQVSLSVGSVTPDDTATYYCAKDLCGGRINGCYNDGYYYSLRVDAWGQGLLVTVSS
# VL: QAVLAQPSSVSGSLGQRVSITCSGSSNNIGSYGVGWYQQVPGSGLRTIIYGSSNRPSGVPDRFSGSKSGNTATLTISSLQAEDEADYFCAASDYSSNTVVFASGTTLTVL
# Target: FMDV O/Mya/98 146S antigen (Foot-and-mouth disease virus serotype …, UniProt G8JKC2, strain)
# Assay: cell-based or functional assay
row,Binder,"virus neutralizing test on BHK-21 cells, IC50"
1,B1,1.82 µg/mL
2,B2,3.91 µg/mL
3,B3,3.13 µg/mL
4,B4,2.86 µg/mL
5,B5,4.69 µg/mL
6,B6,1.43 µg/mL
7,B7,17.9 µg/mL
8,B8,2.6 µg/mL
9,B9,3.33 µg/mL
10,B10,4.17 µg/mL
11,B11,3.28 µg/mL
12,B12,5.56 µg/mL
13,B13,0.98 µg/mL
14,B14,7.81 µg/mL
15,B15,12.2 µg/mL
16,B16,3.13 µg/mL
17,B17,3.65 µg/mL
18,B18,11.5 µg/mL
19,B19,6.22 µg/mL
20,B20,0.78 µg/mL

# — article PMC6908506, “Development of Foot-and-Mouth Disease Virus-Neutralizing Monoclonal Antibodies Derived From Plasmablasts of Infected Cattle and Their Germline Gene Usage” (Frontiers in Immunology, 2019)
